Results reported in patent US20250320281A1.

Columns and labels:
Assay in all cases: cell-based or functional assay
[1] = target: HIV-1 93UG077 Env (pseudovirus) (HIV-1)
[2] = target: HIV-1 envelope glycoprotein (Env) of isolate MGRM-C-022 (HIV-1)
[3] = target: HIV-1 Env of isolate MGRM-Chronic-B-024 (subtype B) (HIV-1)
[4] = target: HIV-1 MGRM-C-028 Env (pseudovirus, clade C) (HIV-1)
[5] = target: HIV-1 Env of isolate MG RM-D-013 (HIV-1)
[6] = target: HIV-1 Env of isolate TRJ04551.58 (subtype B) (HIV-1)
[7] = target: HIV-1 Env of isolate MGRM-A-005 (HIV-1)
[8] = target: HIV-1 Env of isolate 92UG001 (HIV-1)
[9] = target: HIV-1 APV17 Env (pseudovirus, clade B) (HIV-1)
[10] = target: HIV-1 94UG103 Env (pseudovirus, clade A) (HIV-1)
[11] = target: HIV-1 Env of isolate MGRM-Chronic-B-001 (subtype B) (HIV-1)
[12] = target: HIV-1 Env of pseudovirus isolate MGRM-G-024 (HIV-1)
[13] = target: HIV-1 Env of isolate 93MW959 (subtype C) (HIV-1)
[14] = target: HIV-1 Env of isolate MGRM-A-002 (HIV-1)
[15] = target: HIV-1 MGRM-AG-005 Env (pseudovirus) (HIV-1)
[16] = target: HIV-1 envelope glycoprotein (Env) of isolate MGRM-C-028 (HIV-1)
[17] = target: HIV-1 Env of isolate MGRM-Chronic-B-010 (subtype B) (HIV-1)
[18] = target: HIV-1 Env of isolate MGRM-Chronic-B-002 (subtype B) (HIV-1)
[19] = target: HIV-1 APV13 Env (pseudovirus) (HIV-1)
[20] = target: HIV-1 Env of isolate MGRM-AE-003 (subtype AE) (HIV-1)
[21] = target: HIV-1 Env of isolate MGRM-AG-011 (subtype AG) (HIV-1)
[22] = target: HIV-1 Env of isolate MG RM-D-016 (HIV-1)
[23] = target: HIV-1 Env of isolate MGRM-AG-002 (HIV-1)
[24] = target: HIV-1 Env of isolate MGRM-Chronic-B-018 (subtype B pseudovirus) (HIV-1)
[25] = target: HIV-1 Env of isolate MGRM-F1-020 (HIV-1)
[26] = target: HIV-1 Env of isolate MGRM-AG-009 (HIV-1)
[27] = target: HIV-1 Env of isolate MGRM-D-022 (pseudovirus) (HIV-1)
[28] = target: HIV-1 Env of isolate MGRM-F1-017 (HIV-1)
[29] = target: HIV-1 Env of isolate MGRM-Chronic-B-012 (subtype B pseudovirus) (HIV-1)
[30] = target: HIV-1 Env of isolate MGRM-Chronic-B-008 (subtype B pseudovirus) (HIV-1)
[31] = target: HIV-1 Env of isolate 93TH305 (subtype B pseudovirus) (HIV-1)
[32] = target: HIV-1 Env of isolate MGRM-D-003 (pseudovirus) (HIV-1)
[33] = target: HIV-1 envelope glycoprotein (Env) of isolate 94KE105, listed under clade A (HIV-1)
[34] = target: HIV-1 Env of pseudovirus MGRM-Chronic-B-023 (HIV-1)
[35] = target: HIV-1 APV-6 envelope glycoprotein (Env) on pseudovirus (HIV-1)
[36] = target: HIV-1 Env of isolate TRO.11 (Acute), clade B, on pseudovirus (HIV-1)
[37] = target: HIV-1 envelope glycoprotein (Env) of isolate MGRM-A-007, clade A (HIV-1)
[38] = target: HIV-1 Env of isolate MGRM-D-002 (clade D pseudovirus) (HIV-1)
[39] = target: HIV-1 Env of pseudovirus MGRM-Chronic-B-018 (HIV-1)
[40] = target: HIV-1 Env of pseudovirus MGRM-G-006 (clade G) (HIV-1)
[41] = target: HIV-1 Env of pseudovirus MGRM-AG-005 (clade CRF_AG) (HIV-1)

Chain of 5329_C19 (PGT-136) (antibody) (VH): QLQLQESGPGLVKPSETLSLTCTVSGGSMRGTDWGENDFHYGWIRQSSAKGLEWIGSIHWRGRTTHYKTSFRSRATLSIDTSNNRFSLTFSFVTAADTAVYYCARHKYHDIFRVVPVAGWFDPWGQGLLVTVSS
Chain of 5329_C19 (PGT-136) (antibody) (VL): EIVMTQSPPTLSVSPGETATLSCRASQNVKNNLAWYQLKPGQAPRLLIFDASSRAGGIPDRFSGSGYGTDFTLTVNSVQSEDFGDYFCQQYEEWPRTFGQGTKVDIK
Chain of 4993_K13 (PGT-141) (antibody) (VH): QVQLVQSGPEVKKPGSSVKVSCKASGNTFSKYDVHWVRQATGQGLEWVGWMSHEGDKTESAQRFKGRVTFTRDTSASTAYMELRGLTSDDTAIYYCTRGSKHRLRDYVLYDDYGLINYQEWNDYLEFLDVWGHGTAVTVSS
Chain of 4993_K13 (PGT-141) (antibody) (VL): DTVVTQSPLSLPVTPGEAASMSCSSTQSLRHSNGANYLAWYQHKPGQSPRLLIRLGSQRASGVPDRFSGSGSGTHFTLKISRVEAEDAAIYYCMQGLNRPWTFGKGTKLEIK
Chain of 4980_N08 (PGT-143) (antibody) (VH): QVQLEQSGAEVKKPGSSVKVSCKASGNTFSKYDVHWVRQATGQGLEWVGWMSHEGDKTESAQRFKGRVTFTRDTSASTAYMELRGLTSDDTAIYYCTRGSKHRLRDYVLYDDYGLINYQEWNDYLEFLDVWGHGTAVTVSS
Chain of 4980_N08 (PGT-143) (antibody) (VL): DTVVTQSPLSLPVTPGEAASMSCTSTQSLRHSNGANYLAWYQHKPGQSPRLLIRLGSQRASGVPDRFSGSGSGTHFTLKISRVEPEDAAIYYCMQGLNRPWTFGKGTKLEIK
Chain of 4995_E20 (PGT-142) (antibody) (VH): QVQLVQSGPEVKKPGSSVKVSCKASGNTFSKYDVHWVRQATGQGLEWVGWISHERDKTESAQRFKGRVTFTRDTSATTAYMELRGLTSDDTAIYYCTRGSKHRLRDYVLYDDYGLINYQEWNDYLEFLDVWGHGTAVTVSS
Chain of 5345_I01 (PGT-137) (antibody) (VH): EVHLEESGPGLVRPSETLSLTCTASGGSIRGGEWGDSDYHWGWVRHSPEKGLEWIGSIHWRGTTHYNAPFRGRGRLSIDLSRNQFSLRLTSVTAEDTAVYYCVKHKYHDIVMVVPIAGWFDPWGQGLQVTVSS
Chain of 5345_I01 (PGT-137) (antibody) (VL): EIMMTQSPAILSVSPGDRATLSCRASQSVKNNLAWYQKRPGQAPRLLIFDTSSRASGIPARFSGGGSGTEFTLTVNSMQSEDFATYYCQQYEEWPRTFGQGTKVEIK
Chain of 4970_K22 (PGT-144) (antibody) (VH): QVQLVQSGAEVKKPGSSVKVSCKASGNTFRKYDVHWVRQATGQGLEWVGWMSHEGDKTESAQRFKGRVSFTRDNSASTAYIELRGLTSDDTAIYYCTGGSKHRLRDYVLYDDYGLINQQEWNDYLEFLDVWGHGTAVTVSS
Chain of 4970_K22 (PGT-144) (antibody) (VL): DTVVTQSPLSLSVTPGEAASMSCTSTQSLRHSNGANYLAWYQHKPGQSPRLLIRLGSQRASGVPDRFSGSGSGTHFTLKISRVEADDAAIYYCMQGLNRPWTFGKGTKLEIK

Substance | IC50 (neutralizing activity, pseudovirus) [1] | IC50 (µg/mL), pseudovirus neutralization [2] | IC50 neutralization [3] | IC50 (µg/mL), pseudovirus neutralization [5] | IC50 neutralization [6] | IC50 [7] | IC50 (µg/mL), pseudovirus neutralization [8] | IC50 neutralization [11] | IC50 (µg/mL), pseudovirus neutralization [12] | IC50 neutralization [13] | IC50 [14] | IC50 (neutralizing activity, pseudovirus) [15] | IC50 (µg/mL), pseudovirus neutralization [16] | IC50 neutralization [17] | IC50 neutralization [18] | IC50 (neutralizing activity, pseudovirus) [19] | IC50 (µg/mL), pseudovirus neutralization [20] | IC50 (µg/mL), pseudovirus neutralization [21] | IC50 (µg/mL), pseudovirus neutralization [22] | also measured
5329_C19 (PGT-136) (antibody) | > 10 µg/mL | > 50 µg/mL | > 50 µg/mL | > 50 µg/mL | > 50 µg/mL | > 50 µg/mL | > 50 µg/mL | > 50 µg/mL | 0.152 µg/mL | > 50 µg/mL | > 50 µg/mL | > 10 µg/mL | 33.7 µg/mL | > 50 µg/mL | > 50 µg/mL | > 10 µg/mL | > 50 µg/mL | > 50 µg/mL | > 50 µg/mL | IC50 neutralization [4]: > 10 µg/mL; IC50 neutralization [9]: > 10 µg/mL; IC50 neutralization [10]: > 10 µg/mL
5145_B14 (PGT-127) (antibody) |  |  |  |  |  |  |  |  | > 50 µg/mL |  |  |  |  |  |  |  |  |  |  | IC50 [23]: > 50 µg/mL; IC50 (µg/mL), pseudovirus neutralization [24]: 1.9 µg/mL; IC50 (µg/mL), pseudovirus neutralization [25]: > 50 µg/mL; IC50 [26]: 0.059 µg/mL; IC50, pseudovirus neutralization [27]: > 50 µg/mL; IC50 (µg/mL), pseudovirus neutralization [28]: > 50 µg/mL; IC50 (µg/mL), pseudovirus neutralization [29]: 0.075 µg/mL; IC50 (µg/mL), pseudovirus neutralization [30]: 21.5 µg/mL; IC50 (µg/mL), pseudovirus neutralization [31]: 0.017 µg/mL; IC50, pseudovirus neutralization [32]: 0.029 µg/mL
5345_I01 (PGT-137) (antibody) |  | > 50 µg/mL | > 50 µg/mL | > 50 µg/mL | > 50 µg/mL | > 50 µg/mL | > 50 µg/mL | > 50 µg/mL | 0.051 µg/mL | > 50 µg/mL | > 50 µg/mL |  | > 50 µg/mL | > 50 µg/mL | > 50 µg/mL |  | > 50 µg/mL | > 50 µg/mL | > 50 µg/mL | 
5343_B08 (PGT-135) (antibody) | > 10 µg/mL | > 50 µg/mL | > 50 µg/mL | > 50 µg/mL | > 50 µg/mL | > 50 µg/mL | > 50 µg/mL | > 50 µg/mL | 0.062 µg/mL | > 50 µg/mL | > 50 µg/mL | > 10 µg/mL | 1.47 µg/mL | > 50 µg/mL | > 50 µg/mL | 0.545 µg/mL | > 50 µg/mL | > 50 µg/mL | > 50 µg/mL | IC50 neutralization [4]: 2.16 µg/mL; IC50 neutralization [9]: > 10 µg/mL; IC50 neutralization [10]: > 10 µg/mL
4838_L06 (PGT-121) (antibody) |  |  |  |  |  |  |  |  |  |  |  |  |  |  |  |  |  |  |  | IC50 [23]: > 50 µg/mL; IC50 (µg/mL), pseudovirus neutralization [24]: > 50 µg/mL; IC50 (µg/mL), pseudovirus neutralization [25]: 0.167 µg/mL; IC50 [26]: 0.08 µg/mL; IC50, pseudovirus neutralization [27]: > 50 µg/mL; IC50 (µg/mL), pseudovirus neutralization [28]: 16.9 µg/mL; IC50 (µg/mL), pseudovirus neutralization [29]: 0.036 µg/mL; IC50 (µg/mL), pseudovirus neutralization [30]: 0.007 µg/mL; IC50 (µg/mL), pseudovirus neutralization [31]: 0.007 µg/mL; IC50, pseudovirus neutralization [32]: 10.7 µg/mL
4980_N08 (PGT-143) (antibody) | > 10 µg/mL |  |  |  |  |  |  |  |  |  |  | 0.244 µg/mL |  |  |  | > 10 µg/mL | > 50 µg/mL |  |  | 
4970_K22 (PGT-144) (antibody) | > 10 µg/mL |  |  |  |  |  |  |  |  |  |  | > 10 µg/mL |  |  |  | > 10 µg/mL | > 50 µg/mL |  |  | 
5136_H01 (PGT-131) (antibody) |  | 0.78 µg/mL | > 50 µg/mL | 4.14 µg/mL | 0.088 µg/mL | > 50 µg/mL | > 50 µg/mL | > 50 µg/mL | 10.7 µg/mL | > 50 µg/mL | > 50 µg/mL |  | > 50 µg/mL | 0.016 µg/mL | > 50 µg/mL |  | 1.41 µg/mL | > 50 µg/mL | > 50 µg/mL | 
4995_E20 (PGT-142) (antibody) | > 10 µg/mL |  |  |  |  |  |  |  |  |  |  | 0.22 µg/mL |  |  |  | > 10 µg/mL | > 50 µg/mL |  |  | 
1496_C09 (PG9) (TCN-109) (antibody) |  |  |  |  |  |  |  |  |  |  |  |  |  |  |  |  |  |  |  | IC50 (µg/ml), pseudovirus neutralization [33]: 29.6 µg/mL; IC50 neutralization [4]: 0.121 µg/mL; IC50 (µg/ml), pseudovirus neutralization [34]: 0.04 µg/mL; IC50, pseudovirus neutralization [35]: 0.0869 µg/mL; IC50 (µg/ml), pseudovirus neutralization [36]: 5.43 µg/mL; IC50 neutralization [10]: 0.31 µg/mL; IC50 (µg/ml), pseudovirus neutralization [37]: 0.37 µg/mL; IC50 (µg/ml), pseudovirus neutralization [38]: 0.027 µg/mL; IC50 (µg/ml), pseudovirus neutralization [39]: 0.16 µg/mL; IC50 [40]: 0.51 µg/mL; IC50 [41]: 29.7 µg/mL
5147_N06 (PGT-130) (antibody) |  | 0.127 µg/mL | 5.78 µg/mL | 0.429 µg/mL | 0.023 µg/mL | > 50 µg/mL | > 50 µg/mL | > 50 µg/mL | 5.84 µg/mL | 8.55 µg/mL | 0.01 µg/mL |  | > 50 µg/mL | 0.006 µg/mL | > 50 µg/mL |  | 0.337 µg/mL | > 50 µg/mL | > 50 µg/mL | Neutralization by PGT-130, IC50 [1]: > 10 µg/mL; Neutralization by PGT-130, IC80 [1]: > 10 µg/mL; Neutralization by PGT-130, IC90 [1]: > 10 µg/mL; Neutralization by PGT-130, IC95 [1]: > 10 µg/mL; neutralization IC50 (pseudovirus) [1]: > 10 µg/mL; IC50 neutralization [4]: > 10 µg/mL; IC50 neutralization [9]: > 10 µg/mL; IC50 neutralization [10]: 0.635 µg/mL; Neutralization by PGT-130, IC50 [15]: 0.947 µg/mL; Neutralization by PGT-130, IC80 [15]: > 10 µg/mL; Neutralization by PGT-130, IC90 [15]: > 10 µg/mL; Neutralization by PGT-130, IC95 [15]: > 10 µg/mL; neutralization IC50 (pseudovirus) [15]: 0.947 µg/mL; Neutralization by PGT-130, IC50 [19]: 0.0345 µg/mL; Neutralization by PGT-130, IC80 [19]: 0.573 µg/mL; Neutralization by PGT-130, IC90 [19]: 2.88 µg/mL; Neutralization by PGT-130, IC95 [19]: > 10 µg/mL; neutralization IC50 (pseudovirus) [19]: 0.0345 µg/mL
VRC01 (antibody) |  |  |  |  |  |  |  |  |  |  |  |  |  |  |  |  | 0.685 µg/mL |  |  | IC50 [25]: 1.89 µg/mL; IC50 [5]: 0.087 µg/mL; IC50 [28]: 1.08 µg/mL; IC50 [22]: 0.452 µg/mL
PGV04 (antibody) |  |  |  |  |  |  |  |  |  |  |  |  |  |  |  |  |  |  |  | IC50 [8]: 0.553 µg/mL
5114_A19 (PGT-128) (antibody) |  | 0.042 µg/mL | > 50 µg/mL | 8.85 µg/mL | 0.019 µg/mL | > 50 µg/mL | > 50 µg/mL | > 50 µg/mL | 0.095 µg/mL | 0.045 µg/mL | 0.149 µg/mL |  | 14.4 µg/mL | 0.004 µg/mL | 0.036 µg/mL |  | 0.18 µg/mL | 3.93 µg/mL | > 50 µg/mL | 
4993_K13 (PGT-141) (antibody) | > 10 µg/mL |  |  |  |  |  |  |  |  |  |  | 0.392 µg/mL |  |  |  | > 10 µg/mL | > 50 µg/mL |  |  | 
